# Assay results reported in article PMC2959089, “The intriguing Cyclophilin A-HIV-1 Vpr interaction: prolyl cis/trans isomerisation catalysis and specific binding” (BMC Structural Biology, 2010).
# Target: T1, recombinant human Cyclophilin A (CypA) (human, UniProt P62937 1-165)
# T1 construct: also called human peptidyl prolyl isomerase CypA; source: E. coli BL21(DE3), pET11c, purified (DEAE-Sepharose flow-through, MonoS cation exchange)
# Assay: SPR
# Details: both partners purified
# T1 sequence (P62937 whole entry): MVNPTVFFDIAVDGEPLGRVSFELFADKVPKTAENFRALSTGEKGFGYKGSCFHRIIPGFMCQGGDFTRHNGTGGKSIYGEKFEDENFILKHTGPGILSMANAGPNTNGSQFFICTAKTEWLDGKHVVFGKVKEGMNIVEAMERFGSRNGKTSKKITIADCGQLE
Binder,Kd,"ka1 (two-state model, association)","ka2 (two-state model, forward rate)","kd1 (two-state model, dissociation)","kd2 (two-state model, backward rate)"
ELLEELKSEAVRHFPRIWLH (source: synthetic peptide) [synthetic HIV-1 Vpr peptide sVpr^21-40],201 µM,466 M⁻¹ s⁻¹,0.0084 s⁻¹,0.164 s⁻¹,0.011 s⁻¹
ELKSEAVRHFPRIWLH (source: synthetic peptide) [synthetic HIV-1 Vpr peptide sVpr^25-40],404 µM,2000 M⁻¹ s⁻¹,0.0028 s⁻¹,0.942 s⁻¹,0.0173 s⁻¹
AVRHFPRIWLH (source: synthetic peptide) [synthetic HIV-1 Vpr peptide sVpr^30-40],167 µM,2470 M⁻¹ s⁻¹,0.00145 s⁻¹,0.527 s⁻¹,0.0053 s⁻¹
HFPRI (source: synthetic peptide) [synthetic HIV-1 Vpr peptide sVpr^33-37],3570 µM,120 M⁻¹ s⁻¹,0.00138 s⁻¹,0.66 s⁻¹,0.0025 s⁻¹
RHFPRIW (source: synthetic peptide) [synthetic HIV-1 Vpr peptide sVpr^32-38],487 µM,924 M⁻¹ s⁻¹,0.0011 s⁻¹,0.67 s⁻¹,0.0023 s⁻¹
